Reference: article PMC6620040, “Structure of the DNA-Bound Spacer Capture Complex of a Type II CRISPR-Cas System” (Molecular Cell, 2019)

B1: Cas2 protein of the CRISPR3-Cas system from S. thermophilus DGCC7710 (natural protein, Streptococcus thermophilus DGCC7710)
chain: MSYRYMRMILMFDMPTDTAEERKAYRKFRKFLLSEGFIMHQFSVYSKLLLNHTANTAMVGRLKANNPKKGNITILTVTEKQFARMIYLYGDKNTSIANSEERLVFLGDNYCDED
notes: Cas2 of the type II-A CRISPR3-Cas system, Streptococcus thermophilus DGCC7710; expressed from the CRISPR3 locus plasmid; source: E. coli BL21 (DE3), expressed from the CRISPR3 locus plasmid (pCas1- and derivatives), in lysate; purified as a complex (Strep-Trap HP, Superdex S200) for cryo-EM
B2: Csn2 protein of the CRISPR3-Cas system from S. thermophilus DGCC7710 (natural protein, Streptococcus thermophilus DGCC7710)
chain: MKINFSLLDEPMEVNLGTVLVIEDVSVFAQLVKEFYQYDEQSNLTIFDSKIRSIRSSELLLITDILGYDINTSQVLKLLHTDIVSQLNDKPEVRSEIDSLVSLITDIIMAECIENELDIEYDEITLLELIKALGVRIETKSCTVFEKIFEILQIFKYLVKKRILVFVNSLSYFSKDEIYQILEYTKLSQADVLFLEPRQIEGIQQFILDKDYILMPYNN
notes: Csn2 of the type II-A CRISPR3-Cas system, Streptococcus thermophilus DGCC7710; expressed from the CRISPR3 locus plasmid; Tetramer (dimer of dimers, conformations Csn2A and Csn2B) in the structures; one Ca2+ per chain modelled; also called StCsn2; Csn2A; source: E. coli BL21 (DE3), expressed from the CRISPR3 locus plasmid (pCas1- and derivatives), in lysate; purified as a complex (Strep-Trap HP, …)
B3: Cas1 protein of the CRISPR3-Cas system from S. thermophilus DGCC7710, bearing a StrepII tag (natural protein, Streptococcus thermophilus DGCC7710)
chain: MAGWRTVVVNIHSKLSYKNNHLIFRNSYKTEMIHLSEIDILLLETTDIVLTTMLVKRLVDENILVIFCDDKRLPTAFLTPYYARHDSSLQIARQIAWKENVKCEVWTAIIAQKILNQSYYLGECSFFEKSQSIMELYHGLERFDPSNREGHSARIYFNTLFGNDFTRESDNDINAALDYGYTLLLSMFAREVVVCGCMTQIGLKHANQFNQFNLASDIMEPFRPIIDRIVYQNRHNNFVKIKKELFSIFSETYLYNGKEMYLSNIVSDYTKKVIKALNQLGEEIPEFRI
notes: Cas1 of the type II-A CRISPR3-Cas system, Streptococcus thermophilus DGCC7710; cloned into pETDUET-1 (pCas1Strep); Forms dimers with two conformations (Cas1A, Cas1B) in the structures; also called StCas1; Strep-tagged Cas1; source: E. coli BL21 (DE3), co-expressed with the rest of the CRISPR3-Cas locus, in lysate; purified as a complex (Strep-Trap HP, Superdex S200) for cryo-EM; not shown: …

Legend:
[1] = target: B3; assay: pull-down; StrepII-tagged Cas1 co-expressed in E. coli with the CRISPR3-Cas locus (all four proteins; also the variants lacking Cas9, the CRISPR array or tracrRNA); StrepTrap column, then size-exclusion chromatography (Superdex S200), SDS-PAGE; 10 mM Tris-HCl pH 7.5, 300 mM KCl, 1 mM EDTA, 1 mM DTT; conditions: partners not purified
[2] = target: the molecule itself; assay: cryo-EM structure; Strep-Trap- and SEC-purified Cas9-Cas1-Cas2-Csn2 sample after DNase I treatment and gel filtration (25 mM Tris pH 7.5, 150 mM NaCl, 1 mM TCEP), graphene oxide coated grids; monomer Cas1_(8)-Cas2_(4)-Csn2_(8) at 3.2 Å (D2), dimer Cas1_(24)-Cas2_(12)-Csn2_(16) at 7.2 Å (D2), filament unit at 7.7 Å (D2); duplex DNA in the central channel

Row | Binder | binding result [1] | stoichiometry N [2]
1 | B1 | binds | 2
2 | B2 |  | 4
3 | B3 |  | 2
